Results published in patent publication US20240343816A1 (INSTITUTE OF HEALTH AND MEDICINE HEFEI COMPREHENSIVE …, published 2024).

Target: T1, human-derived IL-6Rα protein (human, UniProt P08887 20-365, limits assumed)
T1 construct: Described only as 'soluble human IL-6Rα protein'; also called h-IL-6Rα; soluble human IL-6Rα protein
T1 sequence (looked up): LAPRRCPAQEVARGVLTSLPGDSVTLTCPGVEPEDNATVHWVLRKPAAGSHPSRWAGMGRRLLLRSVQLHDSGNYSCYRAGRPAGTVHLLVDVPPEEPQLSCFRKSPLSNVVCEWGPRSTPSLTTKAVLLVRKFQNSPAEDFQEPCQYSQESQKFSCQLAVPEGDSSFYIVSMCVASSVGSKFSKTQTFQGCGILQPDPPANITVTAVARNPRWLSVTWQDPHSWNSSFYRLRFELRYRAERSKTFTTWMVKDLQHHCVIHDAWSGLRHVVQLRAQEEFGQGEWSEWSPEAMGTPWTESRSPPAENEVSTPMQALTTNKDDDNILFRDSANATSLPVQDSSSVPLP
Assay: SPR, h-IL-6Rα immobilized on a CM5 chip, 2S3-3D as analyte at 250, 125, 62.5, 31.2 and 15.6 nM
Description: The binding kinetics experiments for detecting antigen-antibody were carried out by Biocare Molecular Biological Interaction Platform. […] The binding time was set at 180 s/dissociation time at 200 s. The binding and dissociation of antigen and antibody were observed, and the data were analyzed by the corresponding analysis software.

B1: nanobody 2S3-3D (VHH)
VHH: QLQLVESGGGLVRPGGSLRLSCTIHGVTLDWYAVGWFRQAPGKEREGVSCISSSDGSTYYADSVKGRFTISRDNVKNTMYLQMNSLKPEDTAVYYCAMVFTTAQAMGVPFHDFEYDYWGPGTQVTVSS
notes: Alpaca-derived VHH expressed from pTT5 in 293F cells; also called anti-h-IL-6Rα nanobody; the nanobody
Kd: 6.33 nM
